Patent US20240287484

Key:
Conditions in all cases: qPCR; 3 mM MgCl2, 37 C
[1] = tested on: T1, MG153-39 RT (uncultivated organism (metagenomic))
T1 sequence: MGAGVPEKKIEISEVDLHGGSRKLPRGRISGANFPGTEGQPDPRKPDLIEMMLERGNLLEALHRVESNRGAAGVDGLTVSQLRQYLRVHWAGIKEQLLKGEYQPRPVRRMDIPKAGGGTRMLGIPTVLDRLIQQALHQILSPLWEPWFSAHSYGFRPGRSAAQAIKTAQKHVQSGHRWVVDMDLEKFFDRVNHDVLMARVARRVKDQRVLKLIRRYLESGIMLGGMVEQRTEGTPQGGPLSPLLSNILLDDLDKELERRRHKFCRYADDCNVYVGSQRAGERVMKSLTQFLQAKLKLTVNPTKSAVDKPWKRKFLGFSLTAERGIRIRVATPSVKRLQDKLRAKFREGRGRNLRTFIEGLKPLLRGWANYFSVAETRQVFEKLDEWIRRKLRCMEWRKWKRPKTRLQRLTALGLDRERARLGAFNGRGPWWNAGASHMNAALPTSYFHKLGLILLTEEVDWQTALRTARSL

[2] = tested on: T2, MG153-14 RT (uncultivated organism (metagenomic))
T2 sequence: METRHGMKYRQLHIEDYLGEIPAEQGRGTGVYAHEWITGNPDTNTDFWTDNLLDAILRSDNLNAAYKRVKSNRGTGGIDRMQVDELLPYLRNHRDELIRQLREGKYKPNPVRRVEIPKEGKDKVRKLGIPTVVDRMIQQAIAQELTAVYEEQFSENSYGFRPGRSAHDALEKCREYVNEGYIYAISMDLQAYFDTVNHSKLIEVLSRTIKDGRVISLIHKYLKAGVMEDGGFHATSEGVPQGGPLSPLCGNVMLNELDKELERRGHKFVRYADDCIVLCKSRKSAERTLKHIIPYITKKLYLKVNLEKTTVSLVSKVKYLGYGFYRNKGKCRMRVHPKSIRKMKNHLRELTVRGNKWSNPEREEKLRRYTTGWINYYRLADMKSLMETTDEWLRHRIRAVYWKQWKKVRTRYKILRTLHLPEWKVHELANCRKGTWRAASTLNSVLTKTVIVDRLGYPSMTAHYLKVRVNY

[3] = tested on: T3, MG153-56 RT (uncultivated organism (metagenomic))
T3 sequence: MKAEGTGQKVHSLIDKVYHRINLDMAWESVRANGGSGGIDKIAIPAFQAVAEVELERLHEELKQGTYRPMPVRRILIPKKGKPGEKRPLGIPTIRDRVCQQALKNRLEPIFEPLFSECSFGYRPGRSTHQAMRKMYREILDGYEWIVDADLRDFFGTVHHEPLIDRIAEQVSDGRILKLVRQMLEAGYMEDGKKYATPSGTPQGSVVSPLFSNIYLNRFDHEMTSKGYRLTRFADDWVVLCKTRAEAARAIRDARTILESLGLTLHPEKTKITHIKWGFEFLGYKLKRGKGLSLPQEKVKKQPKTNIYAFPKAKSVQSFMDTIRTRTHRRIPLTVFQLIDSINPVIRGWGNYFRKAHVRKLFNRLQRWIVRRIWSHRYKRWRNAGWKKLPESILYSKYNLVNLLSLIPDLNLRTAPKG

[4] = tested on: T4, MG153-50 RT (uncultivated organism (metagenomic))
T4 sequence: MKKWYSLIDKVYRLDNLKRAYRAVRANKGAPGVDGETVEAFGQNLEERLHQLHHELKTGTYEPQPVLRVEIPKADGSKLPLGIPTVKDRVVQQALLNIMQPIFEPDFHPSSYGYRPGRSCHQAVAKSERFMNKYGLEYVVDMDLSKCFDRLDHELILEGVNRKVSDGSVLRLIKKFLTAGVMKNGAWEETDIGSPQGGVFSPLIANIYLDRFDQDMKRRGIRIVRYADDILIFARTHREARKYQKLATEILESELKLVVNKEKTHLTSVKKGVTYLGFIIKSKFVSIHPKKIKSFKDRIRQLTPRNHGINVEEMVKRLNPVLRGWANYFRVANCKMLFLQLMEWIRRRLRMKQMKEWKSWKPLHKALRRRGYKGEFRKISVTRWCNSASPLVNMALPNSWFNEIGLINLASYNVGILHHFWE

[5] = tested on: T5, MG153-40 RT (uncultivated organism (metagenomic))
T5 sequence: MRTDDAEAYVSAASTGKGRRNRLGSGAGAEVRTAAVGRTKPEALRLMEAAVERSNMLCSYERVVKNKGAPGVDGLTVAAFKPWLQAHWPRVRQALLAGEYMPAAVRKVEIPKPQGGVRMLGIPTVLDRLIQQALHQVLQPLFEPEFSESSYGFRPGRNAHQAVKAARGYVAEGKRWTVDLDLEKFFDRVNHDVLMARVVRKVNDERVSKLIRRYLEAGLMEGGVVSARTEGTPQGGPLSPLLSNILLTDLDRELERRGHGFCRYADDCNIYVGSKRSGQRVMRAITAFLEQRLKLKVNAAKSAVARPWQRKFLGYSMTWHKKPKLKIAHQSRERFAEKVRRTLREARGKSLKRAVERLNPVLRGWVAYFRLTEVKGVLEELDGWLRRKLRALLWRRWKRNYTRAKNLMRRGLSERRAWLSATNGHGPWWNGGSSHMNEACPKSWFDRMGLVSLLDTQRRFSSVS

[6] = tested on: T6, MG153-19 RT (uncultivated organism (metagenomic))
T6 sequence: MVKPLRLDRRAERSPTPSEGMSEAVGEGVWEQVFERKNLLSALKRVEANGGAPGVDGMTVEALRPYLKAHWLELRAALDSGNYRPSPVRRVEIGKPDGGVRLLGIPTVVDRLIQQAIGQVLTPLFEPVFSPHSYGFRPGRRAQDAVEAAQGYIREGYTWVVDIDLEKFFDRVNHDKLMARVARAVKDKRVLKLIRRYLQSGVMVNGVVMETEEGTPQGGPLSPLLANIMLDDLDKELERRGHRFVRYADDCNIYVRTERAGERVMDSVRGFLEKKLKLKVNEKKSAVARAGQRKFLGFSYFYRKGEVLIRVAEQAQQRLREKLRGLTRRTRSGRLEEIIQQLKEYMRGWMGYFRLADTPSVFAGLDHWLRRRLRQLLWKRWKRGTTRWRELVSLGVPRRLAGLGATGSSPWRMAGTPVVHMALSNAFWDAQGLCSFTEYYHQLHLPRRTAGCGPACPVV

Measured: activity (fold over background)

200 nt RNA template annealed to DNA primer
> 10: all assays above
